According to publication PMC2650427 (Bioconjugate chemistry, 2008):

assay: Determination of q by luminescence lifetime measurements; format: physicochemical; conditions: emission 544 nm, excitation 229 nm, 25 scans averaged, monoexponential fit

Row | Substance | kD2O (luminescence decay rate in D2O) [ms^−1] | kH2O (luminescence decay rate in H2O) [ms^−1]
1 | Tb(III)-DOTA-Arg8 [compound 10] | 0.315 | 0.566
2 | Tb(III)-DOTA-SS-Arg8 [compound 12] | 0.397 | 0.644
3 | Tb(III)-DTPA-Arg8 [compound 11] | 0.331 | 0.635
4 | Tb(III)-DTPA-SS-Arg8 [compound 13] | 0.390 | 0.671
